Data from patent US5705334.

How the values were obtained:
[1] = system: h-mtTFA (human mitochondrial transcription factor A) (Homo sapiens); test: inhibition; settings: 1 uM protein, HeLa extract excinuclease, 30 C
HMG1 = test: inhibition; settings: cisplatin 1,2-d(GpG) intrastrand crosslink at a defined site; 1 uM protein; 20% at 0.5 uM; HeLa extract excinuclease, 30 C; EMSA also run at 1-8 uM but result not stated

## 156 bp DNA with site-specific cisplatin 1,3-d(GpTpG) intrastrand adduct
[1]; cisplatin 1,3-d(GpTpG) intrastrand crosslink at a defined site, 40% at 0.5 uM
  activity (% inhibition of repair): 75

## 156 bp DNA with site-specific cisplatin 1,2-d(GpG) intrastrand adduct
HMG1
  activity (% inhibition of repair): 40
[1]; cisplatin 1,2-d(GpG) intrastrand crosslink at a defined site, 95% at 0.5 uM, 8 mM MgCl2, 2 mM ATP
  activity (% inhibition of repair): 100
